In patent US6428579B1, “Implantable prosthetic devices coated with bioactive molecules” (Brown University Research Foundation, priority 1999, dated 2002):

Experiment: Surface plasmon resonance of peptide adsorption on gold
Assay type: physicochemical
Settings: best fit of SPR spectra, Fresnel theory
Source text: Surface plasmon resonance (SPR) was produced when a beam of p-polarized laser light impinges onto the surface of a thin metal film. The light was coupled to the metal film through a prism which was mounted on a rotating turntable. At a particular angle of incidence the E-field of the laser light interacts with the surface bound free electrons of the metal film in such a way that a charge density wave was generated at the interface of the metal and air. This excitation results in a sharp reduction in the magnitude of the reflected light (measured with a photodiode). The angle at which this occurs together with the depth and half-width of the minimum were determined by the thickness and complex refractive index of the metal film. The magnitude of the evanescent field which arises from the charge density wave decays exponentially in the direction normal to the surface. […] By fitting the Fresnel equations, firstly to the date for the uncoated metal film, and then to the metal plus thin film, the thicknesses and complex refractive indices of the metal and peptide overlayer were determined. […] Another practical advantage of this method is that peptide chemistry can be determined in aqueous environments rather than the ultrahigh vacuums needed for other surface-sensitive techniques (e.g. ESCA). […]

Substance: Arg-Gly-Asp-Cys (RGDC; printed: Arg-Gly-Asp-Cys) [fibronectin related peptide, cysteine terminated]
- Film thickness of peptide layer: 23-25 Å
